Measurements from patent US20100167997A1, “METHOD FOR STIMULATION COLLAGEN SYNTHESIS AND/OR KGF EXPRESSION” (ATYR PHARMA, INC., priority 2005, published 2010).

What was measured:
KGF [1] = assay: RT-PCR analysis of KGF expression in foreskin fibroblast cells; type: cell-based; details: for KGF synthesis (RT-PCR), deletion fragments, compared with C-terminal fragment SEQ ID NO: 15: 100 nM for 2 hours and 6 hours, FIG. 6; for synthesis of KGF (RT-PCR), AIMP1 fragments: 100 nM, 0, 1, 2, 4 and 6 hours, FIG. 5
Procedure: From foreskin fibroblast cells treated with 100 nM of the AIMP1 for 2 hours, the total RNA was extracted in the same manner as described in Example <1-2>. Then, the extract was amplified by RT-PCR using KGF-specific primers (SEQ ID NO: 8 and SEQ ID NO: 9). The control groups were amplified using cyclin D-specific primers (SEQ ID NO: 10 and SEQ ID NO: 11) and GADPH-specific primers (SEQ ID NO: 6 and SEQ ID NO: 7), respectively. The PCR reaction consisted of: predenaturation of the template DNA at 95° C. for 5 min, followed by 25 cycles of 1 min at 95° C., 1 min at 52° C. and 1 min at 72° C., and then, a final extension for 5 min at 72° C.
(§1) Foreskin fibroblast cells (5×10^4 cells/well) were cultured in 10% serum-containing DMEM medium on a 6-well plate about 12 hours, and then, cultured in serum-free medium for about 3 hours. Then, the cultured cells were treated with 100 nM of the N-terminal and C-terminal fragments of the AIMP1 prepared in Reference Example 1, at various time intervals of 0, 1, 2, 4, and 6 hours. Then, RT-PCR was performed in the same manner as in Example <1-2> using each of collagen-specific primers (SEQ ID NO: 4 and SEQ ID NO: 5), KGF-specific primers (SEQ ID NO: 8 and SEQ ID NO: 9) and GADPH-specific primers (SEQ ID NO: 6 and SEQ ID NO: 7).
(§2) Foreskin fibroblast cells (5×10^4 cells/well) were cultured in 10% serum-containing DMEM medium on a 6-well plate for 12 hours and then cultured in serum-free medium for about 3 hours. Next, the cultured cells were treated with each of the N-terminal fragments (SEQ ID NOS: 12, 13 and 14) and C-terminal fragment (SEQ ID NO: 15) of AIMP1 prepared in Reference Example 2 at an concentration of 100 nM for 2 hours and 6 hours, respectively. The treated cells were subjected to RT-PCR using collagen-specific primers (SEQ ID NOS: 4 and 5), KGF-specific primers (SEQ ID NOS: 8 and 9) and GADPH-specific primers (SEQ ID NOS: 6 and 7) in the same manner as in Example <1-2>.

collagen [2] = assay: RT-PCR analysis of collagen transcript in foreskin fibroblast cells; type: cell-based; details: for collagen synthesis (RT-PCR), deletion fragments, compared with C-terminal fragment SEQ ID NO: 15: 100 nM for 2 hours and 6 hours, FIG. 6; for synthesis of collagen (RT-PCR), AIMP1 fragments: 100 nM, 0, 1, 2, 4 and 6 hours, FIG. 5
Procedure: (§3) In order to measure the collagen transcript RNA induced by the AIMP1, foreskin fibroblast cells (5×10^4 cells/well; obtained from MTT; accession number: MC1232) were cultured in 10% serum-containing DMEM medium on a 6-well plate for 12 hours and then cultured in serum-free medium for about 3 hours. Next, the cultured cells were treated with the AIMP1 (SEQ ID NO: 1) at varying AIMP1 concentrations of 0, 20, 50, 100 and 200 nM for 6 hours (RT-PCR) or 12 hours (Western blot).
The cells treated with the AIMP1 at varying concentrations in Example <1-1> were collected and dissolved in TRIzol (invitrogen). 10% by weight of chloroform was added to the cell lysate, and mixed well. The mixture was centrifuged at 12,000 g for 15 minutes and the supernatant was collected. Ethanol was added to the collected supernatant to a final concentration of 70%. Then, the supernant was centrifuged at 26,000 g for 5 minutes and the precipitant was collected. The precipitant was dried and dissolved in sterilized distilled water, and the total RNA was extracted. 3 μg of the total RNA was used to prepare cDNA. Then, the cDNA was amplified by PCR using collagen-specific primers (SEQ ID NO: 4 and SEQ ID NO: 5). At this time, for use as a control group, the cDNA was subjected to PCR using GADPH-specific primers (SEQ ID NO: 6 and SEQ ID NO: 7). The PCR reaction consisted of: pre-denaturation of the template DNA at 95° C. for 5 min, followed by 25 cycles of 1 min at 95° C., 1 min at 52° C. and 1 min at 72° C., and then a final extension for 5 min at 72° C.
(§4) Foreskin fibroblast cells (5×10^4 cells/well) were cultured in 10% serum-containing DMEM medium on a 6-well plate for 12 hours, and then, cultured in serum-free medium for about 3 hours. Next, the cultured cells were treated with 100 nM of the AIMP1 at various time intervals (0, 2, 4, 6, 12 and 24 hours).
as §1, §2

collagen [3] = assay: Western blot analysis of collagen (anti-collagen I antibody) in foreskin fibroblast cells; type: cell-based; details: 200 nM for 12 hours, FIG. 7
Procedure: as §3
The cells treated with the AIMP1 at varying AIMP1 concentrations in Example <1-1> were collected and lysed in a cell lysis buffer (50 mM HEPES, pH 7.5, 150 mM NaCl, 10% glycerol, 5 mM EGTA, 1 mM sodium orthovanadate, 10 mM NaF, 12 mM b-glycerophosphate, 1 mM DTT, 1 mM PMSF, […] aprotinin, and 1% NP40). Lysed cells were centrifuged at 26,000 g for 15 minutes and the cell extract was isolated. 30 μg of the cell extract was separated by 8% SDS-PAGE and immunoblotted with an anti-collagen I antibody (Abcam) according to any conventional method known in the art. As a control group, an anti-tubulin antibody (Sigma) was used.
as §4
Foreskin fibroblast cells (5×10^5 cells/well) were cultured in 10% serum-containing DMEM medium on a 6-well plate for 48 hours and then cultured in serum-free medium for about 3 hours. Next, the cultured cells were treated with each of the AIMP1 (SEQ ID NO: 1) and the AIMP1 N-terminal fragments (SEQ ID NOS: 2 and 12) at a concentration of 200 nM for 12 hours. As a control group, cells without treatment were used.
The cells treated with each of the AIMP1 and its N-terminal fragments and the control cells were collected at the indicated time and subjected to Western blot analysis in the same manner as in Example <1-3>.

collagen [4] = assay: Activity to stimulate collagen synthesis (data not shown)
KGF [5] = assay: Activity to stimulate KGF expression (data not shown)

SEQ ID NO: 13: N-terminal deletion fragment of AIMP1, amino acids 1-46 (MANNDAVLKRLEQKGAEADQIIEYLKQQVSLLKEKAILQATLREEK; PEPTIDE (1)..(46) AIMP1-(1-46); listed as Homo sapiens)
KGF synthesis (RT-PCR), deletion fragments, compared with C-terminal fragment SEQ ID NO: 15 (KGF [1]): more stimulated | collagen synthesis (RT-PCR), deletion fragments, compared with C-terminal fragment SEQ ID NO: 15 (collagen [2]): more stimulated

SEQ ID NO: 12: N-terminal deletion fragment of AIMP1, amino acids 6-46 (AVLKRLEQKGAEADQIIEYLKQQVSLLKEKAILQATLREEK; PEPTIDE (1)..(41) AIMP1-(6-46); listed as Homo sapiens)
KGF synthesis (RT-PCR), deletion fragments, compared with C-terminal fragment SEQ ID NO: 15 (KGF [1]): more stimulated | collagen synthesis (RT-PCR), deletion fragments, compared with C-terminal fragment SEQ ID NO: 15 (collagen [2]): more stimulated | synthesis of collagen, protein levels (Western blot), compared with cells without treatment (collagen [3]): more stimulated

SEQ ID NO: 14: N-terminal deletion fragment of AIMP1, amino acids 1-53 (MANNDAVLKRLEQKGAEADQIIEYLKQQVSLLKEKAILQATLREEKKLRVENA; PEPTIDE (1)..(53) AIMP1-(1-53); listed as Homo sapiens)
KGF synthesis (RT-PCR), deletion fragments, compared with C-terminal fragment SEQ ID NO: 15 (KGF [1]): more stimulated | collagen synthesis (RT-PCR), deletion fragments, compared with C-terminal fragment SEQ ID NO: 15 (collagen [2]): more stimulated

B1: SEQ ID NO: 27: fragment consisting of amino acids 1-192 of the AIMP1 (protein, listed as Homo sapiens)
chain: MANNDAVLKRLEQKGAEADQIIEYLKQQVSLLKEKAILQATLREEKKLRVENAKLKKEIEELKQELIQAEIQNGVKQIAFPSGTPLHANSMVSENVIQSTAVTTVSSGTKEQIKGGTGDEKKAKEKIEKKGEKKEKKQQSIAGSADSKPIDVSRLDLRIGCIITARKHPDADSLYVEEVDVGEIAPRTVVSG
modifications: PEPTIDE (1)..(192) AIMP1-(1-192)
notes: fragment consisting of amino acids 1-192 of the AIMP1
activity to stimulate collagen synthesis (collagen [4]): have the activity to stimulate collagen synthesis | activity to stimulate KGF expression (KGF [5]): have the activity to stimulate collagen synthesis and KGF expression

B2: SEQ ID NO: 2: N-terminal fragment of AIMP1, amino acids 1-147 (protein, listed as Homo sapiens)
chain: MANNDAVLKRLEQKGAEADQIIEYLKQQVSLLKEKAILQATLREEKKLRVENAKLKKEIEELKQELIQAEIQNGVKQIAFPSGTPLHANSMVSENVIQSTAVTTVSSGTKEQIKGGTGDEKKAKEKIEKKGEKKEKKQQSIAGSADS
modifications: PEPTIDE (1)..(147) AIMP1-(1-147)
synthesis of KGF (RT-PCR), AIMP1 fragments (KGF [1]): stimulated | synthesis of collagen (RT-PCR), AIMP1 fragments (collagen [2]): stimulated | synthesis of collagen, protein levels (Western blot), compared with cells without treatment (collagen [3]): more stimulated

B3: SEQ ID NO: 28: fragment consisting of amino acids 6-192 of the AIMP1 (protein, listed as Homo sapiens)
chain: AVLKRLEQKGAEADQIIEYLKQQVSLLKEKAILQATLREEKKLRVENAKLKKEIEELKQELIQAEIQNGVKQIAFPSGTPLHANSMVSENVIQSTAVTTVSSGTKEQIKGGTGDEKKAKEKIEKKGEKKEKKQQSIAGSADSKPIDVSRLDLRIGCIITARKHPDADSLYVEEVDVGEIAPRTVVSG
modifications: PEPTIDE (1)..(187) AIMP1-(6-192)
notes: fragment consisting of amino acids 6-192 of the AIMP1
activity to stimulate collagen synthesis (collagen [4]): have the activity to stimulate collagen synthesis | activity to stimulate KGF expression (KGF [5]): have the activity to stimulate collagen synthesis and KGF expression

B4: C-terminal fragment: C-terminal fragment of AIMP1, amino acids 148-312 (protein, listed as Homo sapiens)
chain: KPIDVSRLDLRIGCIITARKHPDADSLYVEEVDVGEIAPRTVVSGLVNHVPLEQMQNRMVILLCNLKPAKMRGVLSQAMVMCASSPEKIEILAPPNGSVPGDRITFDAFPGEPDKELNPKKKIWEQIQPDLHTNDECVATYKGVPFEVKGKGVCRAQTMSNSGIK
modifications: PEPTIDE (1)..(165) AIMP1-(148-312)
synthesis of KGF (RT-PCR), AIMP1 fragments (KGF [1]): no significant effect | synthesis of collagen (RT-PCR), AIMP1 fragments (collagen [2]): no significant effect
